# T1: human IL-1RAcP (residues 1-350) (human, UniProt Q9NPH3 21-350)
# T1 sequence (looked up): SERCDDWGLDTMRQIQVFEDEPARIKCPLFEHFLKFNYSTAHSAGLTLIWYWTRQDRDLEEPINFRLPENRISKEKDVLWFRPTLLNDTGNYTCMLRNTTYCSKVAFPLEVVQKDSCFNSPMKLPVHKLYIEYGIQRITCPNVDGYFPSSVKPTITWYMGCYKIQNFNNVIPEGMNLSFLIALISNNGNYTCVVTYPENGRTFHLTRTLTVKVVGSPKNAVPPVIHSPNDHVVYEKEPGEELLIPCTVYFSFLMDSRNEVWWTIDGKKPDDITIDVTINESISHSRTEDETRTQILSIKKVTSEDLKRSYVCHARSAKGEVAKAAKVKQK
# T2: human IL-1RAcP (residues 1-350) fused to human IgG1-Fc (human, UniProt Q9NPH3 21-350)
# T2 sequence (looked up): T1 sequence (looked up)
# B1: human IL-33:ST2 binary complex (complex)
# chain 1: SITGISPITEYLASLSTYNDQSITFALEDESYEIYVEDLKKDEKKDKVLLSYYESQHPSNESGDGVDGKMLMVTLSPTKDFWLHANNKEHSVELHKCEKPLPDQAFFVLHNMHSNCVSFECKTDPGVFIGVKDNHLALIKVDSSENLCTENILFKLSET
# chain 2: QTGKFSKQSWGLENEALIVRCPRQGKPSYTVDWYYSQTNKSIPTQERNRVFASGQLLKFLPAAVADSGIYTCIVRSPTFNRTGYANVTIYKKQSDCNVPDYLMYSTVSGSEKNSKIYCPTIDLYNWTAPLEWFKNCQALQGSRYRAHKSFLVIDNVMTEDAGDYTCKFIHNENGANYSVTATRSFTVKDEQGFSLFPVIGAPAQNEIKEVEIGKNANLTCSACFGKGTQFLAAVLWQLNGTKITDFGEPRIQQEEGQNQSFSNGLACLDMVLRIADVKEEDLLLQYDCLALNLHGLRRHTVRLSRK
# Assays:
# [1] = molecular target: T1, human IL-1RAcP (residues 1-350); test: HDX-MS
# [2] = molecular target: T2, human IL-1RAcP (residues 1-350) fused …; test: SPR
binder,measurement,setting,value
B1,half-life of the ternary complex (EX1 kinetics of IL-1RAcP(150-156)),[1],10 min
same,half-life of the ternary complex,[2],26 min
